Tests used:
Assay in all cases: cell_activity
[1] = system: dLbCas12a-T152R-K538W-K595Y T152R,K538W,K595Y (Lachnospiraceae bacterium ND2006); conditions: PAM-SCANR in E. coli
[2] = system: dLbCas12a-K538W K538W (Lachnospiraceae bacterium ND2006)
[3] = system: dLbCas12a-K595Y K595Y (Lachnospiraceae bacterium ND2006)
[4] = system: dLbCas12a-K538W-K595Y K538W,K595Y (Lachnospiraceae bacterium ND2006)
[5] = system: dLbCas12a-G532R-K595R (RR) G532R,K595R (Lachnospiraceae bacterium ND2006); conditions: PAM-SCANR in E. coli
[6] = system: wt dLbCas12a (catalytically inactive LbCas12a) (Lachnospiraceae bacterium ND2006); conditions: PAM-SCANR in E. coli, cutoff 1.67
[7] = system: dLbCas12a-T152R-K538W T152R,K538W (Lachnospiraceae bacterium ND2006); conditions: PAM TTTC; printed column identical to K538W+K595Y column
[8] = system: dLbCas12a-T152R T152R (Lachnospiraceae bacterium ND2006); conditions: PAM TTTG; PAM-SCANR in E. coli, cutoff 1.67
[9] = PAM CCCC, not recognized by single mutant

Substance: crRNA targeting lacI promoter ; lacI promoter reporter, AGCC PAM
- binding signal (normalized score) ([1]; PAM AGCC): 13.7

Substance: crRNA targeting lacI promoter ; lacI promoter reporter, CCCC PAM
- binding signal (normalized score) [2, 9]: < 1.67
- binding signal (normalized score) [3, 9]: < 1.67
- binding signal (normalized score) ([4]; PAM CCCC, PAM-SCANR in E. coli): 2.95
- binding signal (normalized score) ([5]; PAM CCCC): 3.87

Substance: crRNA targeting lacI promoter ; lacI promoter reporter, CCGC PAM
- binding signal (normalized score) ([6]; PAM CCGC): 2.23

Substance: crRNA targeting lacI promoter ; lacI promoter reporter, TCGC PAM
- binding signal (normalized score) ([3]; PAM TCGC, PAM-SCANR in E. coli, cutoff 1.67): 3.23

Substance: crRNA targeting lacI promoter ; lacI promoter reporter, TGGC PAM
- binding signal (normalized score) ([1]; PAM TGGC): 10.3

Substance: crRNA targeting lacI promoter ; lacI promoter reporter, TTCG PAM
- binding signal (normalized score) ([5]; PAM TTCG): 4.81

Substance: crRNA targeting lacI promoter ; lacI promoter reporter, TTTA PAM
- binding signal (normalized score) ([2]; PAM TTTA, PAM-SCANR in E. coli, cutoff 1.67, a second K538W column gives 11.18): 4.71
- binding signal (normalized score) ([3]; PAM TTTA, TTTV lost in K595Y): < 1.67

Substance: crRNA targeting lacI promoter ; lacI promoter reporter, TTTC PAM
- binding signal (normalized score) [7]: 12
- binding signal (normalized score) ([6]; PAM TTTC): 2.96
- binding signal (normalized score) ([4]; PAM TTTC, printed column identical to T152R+K538W column): 12

Substance: crRNA targeting lacI promoter ; lacI promoter reporter, TTTG PAM
- binding signal (normalized score) [8]: 2.94

Reference: patent US20210115421
